Measured values taken from the supplement of paper PMC10724198.
± gives the standard deviation of the averaged measurements.

These sequences were tested on Saccharomyces cerevisiae (assay: protein stability index of tFT-peptide fusion (C-terminal peptide) (PSI (0-1 scale)); higher = more stable (slower turnover)). Details: genetic background: wild type; temperature: 30 C.
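Also: PSI is a weighted mean of sequencing reads over stability bins, variants kept only with over 10 reads, mCherry proximal and sfGFP distal, peptide attached via GGGS linker.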

Sequence | protein stability index
NRCIRIQETVRI | 0.619 ± 0.053
NRFFFRHGCVVF | 0.691 ± 0.031
NRNSHSGKIKLK | 0.691 ± 0.049
NRVHLPELAFIT | 0.662 ± 0.014
NRVPKKPAHLQQ | 0.647 ± 0.013
NSCVFCLCHDLA | 0.6991 ± 0.006
NSGKPWTLGRQE | 0.701 ± 0.043
NSPTYEEKERHL | 0.82 ± 0.15
NSRDCILQARET | 0.713 ± 0.012
NTMVPPTGSGNA | 0.732 ± 0.13
NTPNRNFTYTEN | 0.685 ± 0.038
NTRIKGERNILH | 0.702 ± 0.026
NTRKNTTRKSQE | 0.637 ± 0.042
NVYSVRGPWYGG | 0.6604 ± 0.0059
NYRPAHSFGVIS | 0.725 ± 0.018
NYSKPSYLVRAK | 0.697 ± 0.053
PAAPLPPTPPPP | 0.708 ± 0.0082
PAAPPHGFPPPR | 0.6341 ± 0.0046
PACSPLPPLPLS | 0.7 ± 0.018
PADPRSSPPVQQ | 0.691 ± 0.02
PAGFQTPPLVHD | 0.708 ± 0.091
PAHPHPYHPSLH | 0.6265 ± 0.0042
PAHPPPPATPCP | 0.6817 ± 0.0063

Sequence | protein stability index
PAHPSDIGAAAP | 0.675 ± 0.042
PAHSYPILASGH | 0.675 ± 0.034
PALKQEGRPEHS | 0.6942 ± 0.0053
PALLTICRTSLP | 0.64 ± 0.00076
PALPPPFPPFSP | 0.72 ± 0.084
PALPPPPPSPPL | 0.676 ± 0.15
PALPPPSLPPPP | 0.6718 ± 0.0023
PALTSSGPPPLV | 0.741 ± 0.096
PANQVKTILGRL | 0.694 ± 0.11
PAPALPPPSSPP | 0.69 ± 0.0095
PAPAPPPPAVPL | 0.612 ± 0.018
PAPAPSPSFRDH | 0.708 ± 0.094
PAPASDYLRGRR | 0.691 ± 0.049
PAPPPPPLPPPP | 0.615 ± 0.041
PAPPPPPPRPPP | 0.669 ± 0.071
PAPPPPPRPPPS | 0.655 ± 0.008
PAPPSPPPPLYP | 0.721 ± 0.046
PAPPSPSPPPPL | 0.836 ± 0.14
PAPPTPPPPLYP | 0.715 ± 0.015
PAPPVFVPSLPL | 0.801 ± 0.029
PAPRLEPRSPNV | 0.676 ± 0.021
PAPSAPLLRTRP | 0.6702 ± 0.0019
PAPSLPPPRLAP | 0.653 ± 0.026

Sequence | protein stability index
PAPSPLVLFFGF | 0.692 ± 0.03
PAPSRRTVTDYW | 0.654 ± 0.015
PARTPSPPAPSH | 0.657 ± 0.056
PASASVHPRILC | 0.559 ± 0.05
PASLPPSPPLLL | 0.696 ± 0.039
PASPPTSPRSVP | 0.742 ± 0.022
PASRNWGLNPDT | 0.677 ± 0.025
PATRFSPPSSLS | 0.745 ± 0.028
PAVGPDGTIRPL | 0.706 ± 0.037
PAWVEARWLCRG | 0.764 ± 0.069
PAYLMDRGYIMT | 0.613 ± 0.031
PAYVSTLPPLLL | 0.694 ± 0.086
PCFLLPLPHTPP | 0.707 ± 0.024
PCIKHNSSLIGP | 0.701 ± 0.081
PCPAPLPPPAPP | 0.619 ± 0.0098
PCPLAHSLWLMF | 0.612 ± 0.056
PCPPARSSLALS | 0.636 ± 0.051
PCPSPPALPLAP | 0.696 ± 0.056
PCTGSKRRSLKS | 0.717 ± 0.055
PCTPLPRPRTSR | 0.702 ± 0.065
PCYSFSSSPPRL | 0.693 ± 0.016
PDERMVIPAIRD | 0.665 ± 0.12
PDHFPSPALPTH | 0.702 ± 0.0097

Sequence | protein stability index
PDPPSPSPFPAP | 0.724 ± 0.049
PDRQVTAFPCFW | 0.6787 ± 0.0051
PDSASSLTPPPP | 0.66 ± 0.085
PDTLCAYLSFGS | 0.776 ± 0.064
PDTRLGIIITNM | 0.701 ± 0.083
PDVFIWIRPLLP | 0.6282 ± 0.0062
PDVNLVRRVMSL | 0.596 ± 0.053
PDVPVTCYAASH | 0.661 ± 0.067
PEERSGTSAGRL | 0.695 ± 0.038
PEGICYCHSPAP | 0.694 ± 0.013
PEGPPRPPLHPS | 0.696 ± 0.019
PEPEPAGASQKR | 0.577 ± 0.0076
PERWFPSTPSLP | 0.702 ± 0.031
PEYGSGCNCLGS | 0.664 ± 0.0073
PFAPSPRPPQPP | 0.672 ± 0.02
PFATARLFPLPP | 0.804 ± 0.019
PFECRRPFPPPA | 0.764 ± 0.067
PFEVPSSVISVP | 0.673 ± 0.13
PFIAHSACAALN | 0.604 ± 0.011
PFIPQPFPPLCS | 0.709 ± 0.075
PFPFLPSPIFPQ | 0.749 ± 0.057
PFPPPPSPPLYP | 0.7292 ± 0.0012
PFPPSAAPPLPF | 0.593 ± 0.068

Sequence | protein stability index
PFPPSAHPPPPH | 0.795 ± 0.085
PFPRSSPPPPPD | 0.652 ± 0.017
PFPSPPSPRDAS | 0.688 ± 0.042
PFRSPSLPYFRL | 0.712 ± 0.018
PFSLLPDASPPL | 0.703 ± 0.04
PFSLPPPHLWSI | 0.746 ± 0.065
PFVCPHLPAPPP | 0.791 ± 0.094
PFVGFSLLWLGF | 0.567 ± 0.017
PGAFLRLSPPRA | 0.7019 ± 0.0013
PGAGKRLIERVK | 0.593 ± 0.062
PGCGVGSPARAE | 0.712 ± 0.032
PGCYRVPIHSFS | 0.7131 ± 0.0015
PGKRPTERLAPS | 0.749 ± 0.026
PGLIPSPRYLLP | 0.656 ± 0.024
PGLSTGAVKLLY | 0.692 ± 0.023
PGPGNGHTKRTR | 0.654 ± 0.034
PGRLVVGAGRED | 0.707 ± 0.036
PGRRATKVPSPR | 0.719 ± 0.027
PGSAVSFLLTFR | 0.646 ± 0.012
PGSFDLSDLAFA | 0.707 ± 0.073
PGSRRAQPVTSG | 0.741 ± 0.022
PGTGPPSWGRTS | 0.605 ± 0.047
PGTNENPLSPGK | 0.7302 ± 0.0041

Sequence | protein stability index
PHAGPLHTPLRL | 0.699 ± 0.019
PHILPTSDSPFP | 0.78463 ± 0.00073
PHLHLPPPPISA | 0.5857 ± 0.00069
PHLPPPPDPPRP | 0.676 ± 0.009
PHLWSLPHATTA | 0.684 ± 0.051
PHPHLPAPTPRT | 0.702 ± 0.0079
PHPPLPPPPPPP | 0.702 ± 0.018
PHPPPSSRLLSR | 0.751 ± 0.058
PHPQPRPTAPSP | 0.7177 ± 0.002
PHPVTVFLSHLS | 0.499 ± 0.041
PHRPCPPPAPPP | 0.658 ± 0.0096
PHRPIGRVKHAS | 0.71 ± 0.038
PHSPPRPLPPPL | 0.703 ± 0.047
PHTPARSLPPSR | 0.6473 ± 0.0047
PIAPDPAPVGLD | 0.721 ± 0.014
PILPPVPPRASS | 0.7029 ± 0.0053
PIPSVFSPFLFA | 0.641 ± 0.015
PIQYMLRSSMPR | 0.688 ± 0.065
PISPPSFRSPTP | 0.691 ± 0.029
PISPSLCSSILS | 0.5893 ± 0.0056
PISRRVIFCLQT | 0.62 ± 0.033
PITFTSRYLLLE | 0.697 ± 0.042
PIVRTQLGNSVQ | 0.696 ± 0.067

Sequence | protein stability index
PIYRNKGNRGGI | 0.739 ± 0.034
PKKKKKKTKAEK | 0.712 ± 0.035
PKSGPDQPQPPG | 0.591 ± 0.086
PLAFFSTRPTPF | 0.697 ± 0.03
PLALLPPPPHPP | 0.597 ± 0.07
PLAPPPLSPSPI | 0.7873 ± 0.0059
PLAPPPSILPVP | 0.703 ± 0.055
PLAPPRHRRRPG | 0.7132 ± 0.0047
PLARLRFRSVVG | 0.6678 ± 0.0038
PLASRPHPLPPP | 0.671 ± 0.02
PLDAPDTRVWEI | 0.738 ± 0.061
PLFLCVISPFRL | 0.5805 ± 0.0018
PLFLYCRSAPRL | 0.817 ± 0.025
PLFPGLARLSSS | 0.703 ± 0.031
PLFPSPSPPRHP | 0.7435 ± 0.0018
PLFTPPPVLHHP | 0.752 ± 0.031
PLGFFHKQSATV | 0.666 ± 0.023
PLGLPLPCPFLL | 0.683 ± 0.063
PLHPLPPAPFPP | 0.689 ± 0.01
PLIDRSTCSLSG | 0.6366 ± 0.0032
PLIVSPCYSLVP | 0.659 ± 0.014
PLLGPSCLRPPS | 0.791 ± 0.17
